The text below walks through data of the supplement of paper PMC9112550, “Optimization of the antimicrobial peptide Bac7 by deep mutational scanning” (BMC Biology, 2022).

This series concerns Escherichia coli TOP10. The series can be described thus: shrunken log2 fold change of peptide-encoding DNA abundance (4.5 h post-induction vs induction); higher = less antimicrobial activity (less host growth inhibition). The settings on record: time post-induction: 4.5 h; library: site-saturation at positions 5, 18, 19, 20.
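Note: peptides expressed intracellularly from a pBAD plasmid library in pooled LB shake-flask culture, induced with 0.3% L-arabinose, DNA abundance read by NGS, three biological replicates, DESeq2 with apeglm shrinkage.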

On to RRIRGRPPRLPRPRPRPTKNPRP, for which the “shrunken log2 fold change” value amounted to 0.69.

As to RRIRWRPPRLPRPRPRPEQRPRP, the “shrunken log2 fold change” value turned out to be 0.248. Consider RRIRSRPPRLPRPRPRPFSMPRP, for which the “shrunken log2 fold change” value was -0.0498. Next, RRIRCRPPRLPRPRPRPLHYPRP: -0.352. Next, RRIRQRPPRLPRPRPRPLEWPRP: 0.0921. In the case of RRIRPRPPRLPRPRPRPMIMPRP, the “shrunken log2 fold change” value was -0.0291. As for RRIRLRPPRLPRPRPRPDWAPRP, the figure is 0.0283. As for RRIRIRPPRLPRPRPRPWPPPRP, the figure is 0.0965; as for RRIRYRPPRLPRPRPRPYQWPRP, -0.257. For the sequence RRIRRRPPRLPRPRPRPVNMPRP, the “shrunken log2 fold change” value is -0.156. As for RRIRRRPPRLPRPRPRPTRSPRP, the figure is 0.341; as for RRIRGRPPRLPRPRPRPNFGPRP, 0.128; as for RRIRFRPPRLPRPRPRPFKWPRP, -0.269. As to RRIRDRPPRLPRPRPRPDRVPRP, the “shrunken log2 fold change” value is -0.0392. For the sequence RRIRDRPPRLPRPRPRPADAPRP, the “shrunken log2 fold change” value turned out to be 0.196. As for RRIRQRPPRLPRPRPRPLSKPRP, the figure is -0.194; as for RRIRKRPPRLPRPRPRPHFTPRP, -0.0881. As to RRIRERPPRLPRPRPRPVVRPRP, the “shrunken log2 fold change” value is 0.0531. Next, RRIRVRPPRLPRPRPRPQYDPRP: -0.729. Next, RRIRERPPRLPRPRPRPKLLPRP: 0.0473; RRIRIRPPRLPRPRPRPQPMPRP: 0.604. Take RRIRQRPPRLPRPRPRPRHDPRP: the “shrunken log2 fold change” value is 0.0818. Regarding RRIRTRPPRLPRPRPRPMQKPRP, the “shrunken log2 fold change” value is -0.00906. Next, RRIRRRPPRLPRPRPRPGQSPRP: 0.155.

On to RRIRFRPPRLPRPRPRPTYSPRP, for which the “shrunken log2 fold change” value was -0.209. On to RRIRERPPRLPRPRPRPMQPPRP, for which the “shrunken log2 fold change” value is -0.0115. Next, RRIRCRPPRLPRPRPRPHRYPRP: -0.114. As for RRIRSRPPRLPRPRPRPMGCPRP, the figure is -0.112; as for RRIRLRPPRLPRPRPRPVSQPRP, 0.0349; as for RRIRLRPPRLPRPRPRPCMWPRP, -0.0832. Next, RRIRARPPRLPRPRPRPAMIPRP: 0.0684; RRIRRRPPRLPRPRPRPWCIPRP: -0.366; RRIRMRPPRLPRPRPRPKYDPRP: 0.114. For RRIRERPPRLPRPRPRPYAPPRP, the “shrunken log2 fold change” value is -0.624. Next, RRIRQRPPRLPRPRPRPSNNPRP: -0.729; RRIRIRPPRLPRPRPRPSRLPRP: -0.0995. RRIRWRPPRLPRPRPRPFWWPRP: the “shrunken log2 fold change” value was 0.402.

Take RRIRMRPPRLPRPRPRPDLCPRP: the “shrunken log2 fold change” value stood at 0.196. With RRIRQRPPRLPRPRPRPMHWPRP, the “shrunken log2 fold change” value was 0.0747. With RRIRKRPPRLPRPRPRPSLCPRP, the “shrunken log2 fold change” value is -0.239.

For the sequence RRIRHRPPRLPRPRPRPWSKPRP, the “shrunken log2 fold change” value is -0.301.

Take RRIRRRPPRLPRPRPRPQEKPRP: the “shrunken log2 fold change” value came to 0.0332. Take RRIRWRPPRLPRPRPRPFNLPRP: the “shrunken log2 fold change” value was 0.0233. Next, RRIRLRPPRLPRPRPRPGVFPRP: -0.0879; RRIRKRPPRLPRPRPRPKIYPRP: -0.0249; RRIRHRPPRLPRPRPRPMDLPRP: 0.00707. Next, RRIRHRPPRLPRPRPRPSNQPRP: -0.616. As for RRIRFRPPRLPRPRPRPMKAPRP, the figure is 0.035. Consider RRIRCRPPRLPRPRPRPTLYPRP, for which the “shrunken log2 fold change” value is -0.396. Regarding RRIRNRPPRLPRPRPRPYECPRP, the “shrunken log2 fold change” value was -0.177. For RRIRQRPPRLPRPRPRPNPGPRP, the “shrunken log2 fold change” value is -0.205. In the case of RRIRGRPPRLPRPRPRPMTMPRP, the “shrunken log2 fold change” value was 0.146. As for RRIRSRPPRLPRPRPRPDRHPRP, the figure is -0.0205. With RRIRFRPPRLPRPRPRPQMYPRP, the “shrunken log2 fold change” value was -0.725. As to RRIRHRPPRLPRPRPRPPWSPRP, the “shrunken log2 fold change” value was determined as 0.093. On to RRIRARPPRLPRPRPRPHVHPRP, for which the “shrunken log2 fold change” value is -0.192. As for RRIRKRPPRLPRPRPRPYPWPRP, the figure is -0.4. Turning to RRIRNRPPRLPRPRPRPAPNPRP, the “shrunken log2 fold change” value is -0.0796. As for RRIRYRPPRLPRPRPRPGKDPRP, the figure is -0.148. Next, RRIRLRPPRLPRPRPRPEHCPRP: 0.0119; RRIRERPPRLPRPRPRPFADPRP: -0.192. As for RRIRHRPPRLPRPRPRPTVQPRP, the figure is 0.118; as for RRIRKRPPRLPRPRPRPTRLPRP, 0.537; as for RRIRRRPPRLPRPRPRPPMHPRP, 0.693. On to RRIRVRPPRLPRPRPRPEYFPRP, for which the “shrunken log2 fold change” value is -0.285. Consider RRIRYRPPRLPRPRPRPKVAPRP, for which the “shrunken log2 fold change” value was -0.013. As to RRIRCRPPRLPRPRPRPKYMPRP, the “shrunken log2 fold change” value is -0.498. Next, RRIRDRPPRLPRPRPRPPWHPRP: 0.148; RRIRTRPPRLPRPRPRPSHIPRP: -0.274; RRIRLRPPRLPRPRPRPVDKPRP: -0.138. As for RRIRARPPRLPRPRPRPAWSPRP, the figure is 0.329. As for RRIRARPPRLPRPRPRPYHPPRP, the figure is -0.482; as for RRIRIRPPRLPRPRPRPMMHPRP, -0.59; as for RRIRTRPPRLPRPRPRPGQDPRP, -0.102. For RRIRIRPPRLPRPRPRPVIMPRP, the “shrunken log2 fold change” value is -0.334. As for RRIRNRPPRLPRPRPRPHASPRP, the figure is 0.065; as for RRIRMRPPRLPRPRPRPFDPPRP, 0.0446. Next, RRIRRRPPRLPRPRPRPNPHPRP: 0.534; RRIRMRPPRLPRPRPRPVCHPRP: 0.224; RRIRVRPPRLPRPRPRPTLQPRP: 0.0594.

With RRIRNRPPRLPRPRPRPHKTPRP, the “shrunken log2 fold change” value was -0.22.

Turning to RRIRIRPPRLPRPRPRPNCRPRP, the “shrunken log2 fold change” value was -0.0156. Next, RRIRKRPPRLPRPRPRPTMFPRP: 0.165.

RRIRDRPPRLPRPRPRPLNSPRP: the “shrunken log2 fold change” value is 0.0283. As to RRIRPRPPRLPRPRPRPCFGPRP, the “shrunken log2 fold change” value worked out at 1.01.

With RRIRPRPPRLPRPRPRPMCTPRP, the “shrunken log2 fold change” value came to 0.108. Next, RRIRERPPRLPRPRPRPMEIPRP: -0.221; RRIRWRPPRLPRPRPRPPSEPRP: 0.456. As for RRIRWRPPRLPRPRPRPKETPRP, the figure is 0.0203; as for RRIRRRPPRLPRPRPRPFFSPRP, 0.043.

Consider RRIRYRPPRLPRPRPRPPVIPRP, for which the “shrunken log2 fold change” value is -0.0623.

Take RRIRNRPPRLPRPRPRPFTPPRP: the “shrunken log2 fold change” value is -0.197. Consider RRIRSRPPRLPRPRPRPRYWPRP, for which the “shrunken log2 fold change” value was 0.0181. In the case of RRIRVRPPRLPRPRPRPYPRPRP, the “shrunken log2 fold change” value is 0.0644. As for RRIRERPPRLPRPRPRPIGIPRP, the “shrunken log2 fold change” value is -0.123. As for RRIRIRPPRLPRPRPRPLEPPRP, the figure is 0.111; as for RRIRPRPPRLPRPRPRPNQLPRP, -0.258.

As for RRIRQRPPRLPRPRPRPRAKPRP, the “shrunken log2 fold change” value stood at 0.0777. Next, RRIRPRPPRLPRPRPRPSYHPRP: -0.641; RRIRVRPPRLPRPRPRPAVNPRP: 0.138; RRIRGRPPRLPRPRPRPEVGPRP: 1.52. RRIRKRPPRLPRPRPRPIMLPRP: the “shrunken log2 fold change” value was found to be 0.0564. Next, RRIRYRPPRLPRPRPRPMHIPRP: -0.0235; RRIRVRPPRLPRPRPRPSLLPRP: -0.23. In the case of RRIRDRPPRLPRPRPRPFRVPRP, the “shrunken log2 fold change” value is -0.101. Next, RRIRQRPPRLPRPRPRPQYEPRP: -0.349; RRIRIRPPRLPRPRPRPAVWPRP: 0.141; RRIRYRPPRLPRPRPRPRQGPRP: -0.074. On to RRIRKRPPRLPRPRPRPADTPRP, for which the “shrunken log2 fold change” value was determined as 1.03. Next, RRIRRRPPRLPRPRPRPHHTPRP: -0.408.

As to RRIRARPPRLPRPRPRPKADPRP, the “shrunken log2 fold change” value stood at 0.597. Consider RRIRLRPPRLPRPRPRPEHHPRP, for which the “shrunken log2 fold change” value is -0.156. Next, RRIRHRPPRLPRPRPRPWVMPRP: -0.166; RRIRERPPRLPRPRPRPPPLPRP: 0.222. Next, RRIRYRPPRLPRPRPRPPEEPRP: 0.0153; RRIRGRPPRLPRPRPRPDAKPRP: 2; RRIRARPPRLPRPRPRPWMTPRP: -0.141.

In the case of RRIRDRPPRLPRPRPRPFHHPRP, the “shrunken log2 fold change” value was -0.886. For RRIRWRPPRLPRPRPRPRRGPRP, the “shrunken log2 fold change” value turned out to be 0.528. Next, RRIRRRPPRLPRPRPRPGQGPRP: 0.278; RRIRVRPPRLPRPRPRPACCPRP: 0.161. Next, RRIRDRPPRLPRPRPRPRCYPRP: 0.105; RRIRIRPPRLPRPRPRPKPWPRP: 0.192. As to RRIRYRPPRLPRPRPRPWEPPRP, the “shrunken log2 fold change” value is -0.0182. As for RRIRTRPPRLPRPRPRPMTQPRP, the figure is 0.13.
